From US20190345232A1 (GENEURO, published 2019) come the findings set out here.

The assay has as its target T1, linear peptide SLDKHKHKKLQSFYP (SEQ ID NO:9) from HERV-K-Env (human endogenous retrovirus type K …).
T1 construct: 15-mer synthesized on a solid support in the Pepscan peptide array; It corresponds to the 298-312 region of the HERV-K-Env protein described by Dewannieux et al 2005
T1 peptide: SLDKHKHKKLQSFYP
As to the kind of experiment: Pepscan peptide array ELISA, antibody at 1 µg/ml. On the technique in general: ELISA stands for enzyme-linked immunosorbent assay.

B1: GN_mAb_Env_K01 (antibody, V domains shown)
VH: QVQLQQPGAELVRPGASVKLSCKASGYTFTSYWMNWVKQRPEQGLEWIGRIDPYDSETHYNQKFKDKAILTVDKSSSTAYMQLSSLTSEDSAVYYCASLYYYGISLWGQGTLVTVS
VL: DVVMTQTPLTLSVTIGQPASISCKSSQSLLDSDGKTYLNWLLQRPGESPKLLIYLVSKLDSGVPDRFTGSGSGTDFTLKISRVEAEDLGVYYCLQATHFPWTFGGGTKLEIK
notes: also called GN K01; GN K01 Ig
Consider B1, for which the binding result is reported as “binds”.
